From patent US20200369765A1 (INNATE PHARMA, published 2020)
Where a chain is given by its changes, count along the chain named.

T1: Human Siglec-5 (human, UniProt O15389 17-551)
T1 construct: Expressed on transfected CHO cells; also called HuSiglec-5
T1 sequence: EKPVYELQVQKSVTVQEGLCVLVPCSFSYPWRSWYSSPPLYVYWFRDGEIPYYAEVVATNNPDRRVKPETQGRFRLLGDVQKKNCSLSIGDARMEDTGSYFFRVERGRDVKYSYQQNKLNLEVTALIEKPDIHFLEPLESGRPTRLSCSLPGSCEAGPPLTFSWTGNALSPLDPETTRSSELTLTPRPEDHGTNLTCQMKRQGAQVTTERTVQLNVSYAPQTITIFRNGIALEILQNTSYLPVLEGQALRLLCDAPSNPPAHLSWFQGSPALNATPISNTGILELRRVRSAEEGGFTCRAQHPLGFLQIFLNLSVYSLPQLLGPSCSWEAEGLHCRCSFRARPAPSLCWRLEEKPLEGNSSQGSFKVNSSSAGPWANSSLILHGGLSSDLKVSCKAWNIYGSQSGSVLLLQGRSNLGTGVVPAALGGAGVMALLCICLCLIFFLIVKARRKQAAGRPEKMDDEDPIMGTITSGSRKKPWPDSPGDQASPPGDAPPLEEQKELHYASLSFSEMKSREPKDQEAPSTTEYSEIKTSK

T2: Human Siglec-10 (human, UniProt Q96LC7 17-697)
T2 construct: Expressed on transfected CHO cells; also called HuSiglec-10
T2 sequence: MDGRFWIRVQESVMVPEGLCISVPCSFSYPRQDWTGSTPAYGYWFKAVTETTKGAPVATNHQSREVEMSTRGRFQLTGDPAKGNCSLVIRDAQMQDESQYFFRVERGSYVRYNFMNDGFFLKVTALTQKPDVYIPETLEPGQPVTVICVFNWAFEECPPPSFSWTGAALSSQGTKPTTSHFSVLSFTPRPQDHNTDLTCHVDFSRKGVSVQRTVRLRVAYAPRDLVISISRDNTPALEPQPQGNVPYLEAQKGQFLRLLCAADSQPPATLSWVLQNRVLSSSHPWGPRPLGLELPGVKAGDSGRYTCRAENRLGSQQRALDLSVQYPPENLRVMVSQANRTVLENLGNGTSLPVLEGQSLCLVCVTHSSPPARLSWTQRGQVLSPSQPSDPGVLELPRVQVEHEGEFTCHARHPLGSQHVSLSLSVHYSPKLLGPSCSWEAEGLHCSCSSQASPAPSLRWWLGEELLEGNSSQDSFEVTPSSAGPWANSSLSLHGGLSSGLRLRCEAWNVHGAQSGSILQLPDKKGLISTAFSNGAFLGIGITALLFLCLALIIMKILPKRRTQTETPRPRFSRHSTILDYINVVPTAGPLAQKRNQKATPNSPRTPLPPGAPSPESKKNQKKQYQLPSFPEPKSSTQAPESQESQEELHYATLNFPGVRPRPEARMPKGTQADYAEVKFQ

T3: Human Siglec-11 (human, UniProt Q96RL6 29-698)
T3 construct: Expressed on transfected CHO cells; also called HuSiglec-11
T3 sequence: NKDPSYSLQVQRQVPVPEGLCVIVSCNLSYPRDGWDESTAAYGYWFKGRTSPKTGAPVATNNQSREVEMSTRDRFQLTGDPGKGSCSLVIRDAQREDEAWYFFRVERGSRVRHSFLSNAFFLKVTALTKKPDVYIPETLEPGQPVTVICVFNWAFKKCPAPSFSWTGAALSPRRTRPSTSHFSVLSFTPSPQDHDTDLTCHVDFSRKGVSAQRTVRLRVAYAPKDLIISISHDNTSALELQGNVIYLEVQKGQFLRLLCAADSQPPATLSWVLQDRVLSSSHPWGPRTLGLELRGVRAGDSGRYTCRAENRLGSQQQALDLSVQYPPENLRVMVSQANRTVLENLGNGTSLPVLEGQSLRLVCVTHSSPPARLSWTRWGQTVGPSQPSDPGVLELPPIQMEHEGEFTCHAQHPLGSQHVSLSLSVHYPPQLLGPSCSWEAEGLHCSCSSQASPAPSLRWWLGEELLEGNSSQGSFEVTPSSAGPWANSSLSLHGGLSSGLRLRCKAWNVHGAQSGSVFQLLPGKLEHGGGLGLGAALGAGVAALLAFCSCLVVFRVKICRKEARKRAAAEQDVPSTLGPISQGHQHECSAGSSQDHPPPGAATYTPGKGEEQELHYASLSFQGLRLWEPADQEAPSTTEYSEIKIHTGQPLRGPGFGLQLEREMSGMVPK

B1: mAbA (antibody, human IgG1, V domains shown)
VH: QVQLQQPGAELVKPGSPVKLSCKASYFTFTSYWMHWVRQRPGQGLEWIGEINPSNGHTNYNEKFESKATLTVDRSSSTAYMQLSSLTSEDSAVFYCANGVESYDFDDALDYWGQGTSVTVSS
VL: DIQMTQTTSSLSASLGDRVTISCRASQDINNYLNWYQQKPDGTIKLLIYYTSRLHSGVPSRFSGSGSGTDYSLTINNLEQEDIATYFCQQGNTLPFTFGGGTKLEIK
B2: mAbC (antibody, human IgG1, V domains shown)
VH: QIQLVQSGPELKKPGETVKISCKASGYTFTNYEMNWVKEAPGKGLKWMGWINTYTGESTYADDFKGRFAFSLETSASTVYLQINNLKDEDVATYFCVRDDYGRSYGFAYWGQGTLVTVSA
VL: NIVLTQSPASLTVSLGQRANISCRASESVDSYGNSFMHWYQQKPGQPPKLLIYLASKLESGVPARFSGSGSRTDFTLTIDPVETDDAATYYCHQNNEDPPWTFGGGTKLEIK
B3: mAb4 (antibody, human IgG1, V domains shown)
VH: DVQLVESGGDLVKPGGSLKLSCAASGFAFSSYDMSWVRQSPEKRLEWIAHIGSGGGNIYYPDTVKGRFTISRDNAKNTLYLQMRSLKSEDTAMYYCARLIFTTGFYGMDYWGQGTSVTVSS
VL: B1 VL with N30S, N31S, N76S, E79D, E81D, T93A, F96W
B4: mAb5 (antibody, human IgG1, V domains shown)
VH: EIQLQQSGPELEKPGASVKISCKASGYSFSDYNMNWVKQSNGKSLEWIGNIDPYYGATSYNQRFKGKATLTVDKSSSTAYMQLKSLTSEDSAVYYCARGDSLFAYWGHGTLVTVSA
VL: DIVMTQSQEFMSTSLGDRVSVTCKASQNVGTNVAWYQQKPGQSPKALLYSASSRYSGVPDRFTGSGSGTDFTLTISNVQSEDLAEYFCQQYITYPYTFGGGTKLEIK
B5: mAb6 (antibody, human IgG1, V domains shown)
VH: B4 VH with H108Q
VL: B4 VL with S76N, V78M
B6: mAbB (antibody, human IgG1, V domains shown)
VH: QVQLQQPGAELVKPGASVKLSCKASVYTFTSYWMHWVKQRPGQGLEWIGEINPSNGHTNYNEKFKTKAKLTVDKSSSTAYMQLSSLTSEDSAVYFCANGVETYDFDDAMDYWGQGTSVTVSS
VL: B1 VL with I44V, Y50F, N76S, N92D, L94F
B7: mAbE (antibody, human IgG1, V domains shown)
VH: DVQLVESGGGLVQPGGSRKLSCAASGFTFSTFGMHWVRQAPEKGLEWVAYISSGSNAIYYADTVKGRFTISRDNPKNTLFLQMTSLRSEDTAMYYCASPGYGAWFAYWGQGTLVTVSA
VL: ENVLTQSPAIMSASPGEKVTMTCRASSSVSSAYLHWYQQKSGASPKLWIYSTSNLASGVPARFSGSGSGTSYSLTISSVEAEDAATYYCQQYSAYPYTFGGGTKLEIK

Target: T4, Human Siglec-3 (human, UniProt P20138 18-364)
T4 construct: Expressed on transfected CHO cells; also called HuSiglec-3; CD33
T4 sequence (P20138 18-364 R69G): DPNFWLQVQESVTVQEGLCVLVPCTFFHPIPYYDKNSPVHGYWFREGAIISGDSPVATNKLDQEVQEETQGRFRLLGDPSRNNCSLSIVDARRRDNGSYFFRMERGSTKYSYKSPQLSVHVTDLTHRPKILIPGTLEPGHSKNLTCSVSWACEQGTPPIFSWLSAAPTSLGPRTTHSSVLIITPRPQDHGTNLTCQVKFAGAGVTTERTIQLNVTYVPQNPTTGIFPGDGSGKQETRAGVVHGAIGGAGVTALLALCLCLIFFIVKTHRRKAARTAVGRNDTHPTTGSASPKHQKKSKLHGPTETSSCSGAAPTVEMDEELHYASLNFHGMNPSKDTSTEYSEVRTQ
Experiment: flow cytometry, CHO transfectants

binding result	Binder
no binding	B1
no binding	B2
no binding	B3
no binding	B4
no binding	B5
no binding	B6
no binding	B7

Target: T1, Human Siglec-5
Experiment: flow cytometry, CHO transfectants

binding result	Binder
no binding	B1
no binding	B2
no binding	B3
no binding	B4
no binding	B5
no binding	B6
no binding	B7

Target: T5, Human Siglec-6 (human, UniProt O43699 27-453)
T5 construct: Expressed on transfected CHO cells; also called HuSiglec-6
T5 sequence (O43699 other isoform, or with tags, fused parts or gaps): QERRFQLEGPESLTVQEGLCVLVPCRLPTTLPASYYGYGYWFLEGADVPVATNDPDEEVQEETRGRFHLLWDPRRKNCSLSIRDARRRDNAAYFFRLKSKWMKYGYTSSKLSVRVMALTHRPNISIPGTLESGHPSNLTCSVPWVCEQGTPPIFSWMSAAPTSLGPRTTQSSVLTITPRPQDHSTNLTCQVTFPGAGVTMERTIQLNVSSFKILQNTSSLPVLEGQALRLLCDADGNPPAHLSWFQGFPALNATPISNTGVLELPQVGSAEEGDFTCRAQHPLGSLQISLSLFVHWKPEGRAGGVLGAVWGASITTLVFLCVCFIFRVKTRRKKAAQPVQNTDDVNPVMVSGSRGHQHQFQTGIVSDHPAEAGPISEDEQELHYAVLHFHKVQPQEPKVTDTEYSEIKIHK
Experiment: flow cytometry, CHO transfectants

binding result	Binder
no binding	B1
no binding	B2
no binding	B3
no binding	B4
no binding	B5
no binding	B6
no binding	B7

Target: T6, Human Siglec-8 (human, UniProt Q9NYZ4 17-499)
T6 construct: Expressed on transfected CHO cells; also called HuSiglec-8
T6 sequence (Q9NYZ4 17-499): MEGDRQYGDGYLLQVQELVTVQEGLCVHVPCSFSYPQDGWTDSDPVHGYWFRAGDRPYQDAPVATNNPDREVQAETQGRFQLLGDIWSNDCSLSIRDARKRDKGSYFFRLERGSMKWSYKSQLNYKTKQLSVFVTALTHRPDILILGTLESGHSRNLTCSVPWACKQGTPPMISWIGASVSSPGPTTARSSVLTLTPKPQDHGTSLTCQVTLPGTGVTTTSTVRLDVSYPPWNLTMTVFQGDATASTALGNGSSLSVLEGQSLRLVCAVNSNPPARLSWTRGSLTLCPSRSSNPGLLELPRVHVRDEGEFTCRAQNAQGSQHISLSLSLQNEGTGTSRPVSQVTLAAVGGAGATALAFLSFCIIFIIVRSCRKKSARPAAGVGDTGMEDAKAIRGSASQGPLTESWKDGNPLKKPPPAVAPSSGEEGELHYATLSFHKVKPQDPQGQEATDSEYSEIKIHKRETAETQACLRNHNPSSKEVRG
Experiment: flow cytometry, CHO transfectants

binding result	Binder
no binding	B1
no binding	B2
no binding	B3
no binding	B4
no binding	B5
no binding	B6
no binding	B7

Target: T2, Human Siglec-10
Experiment: flow cytometry, CHO transfectants

binding result	Binder
no binding	B1
no binding	B2
no binding	B3
no binding	B4
no binding	B5
no binding	B6
no binding	B7

Target: T3, Human Siglec-11
Experiment: flow cytometry, CHO transfectants

binding result	Binder
no binding	B1
no binding	B2
no binding	B3
no binding	B4
no binding	B5
no binding	B6
no binding	B7

Target: T7, Human Siglec-12 (human, UniProt Q96PQ1 19-595)
T7 construct: Expressed on transfected CHO cells; also called HuSiglec-12
T7 sequence (Q96PQ1 19-595): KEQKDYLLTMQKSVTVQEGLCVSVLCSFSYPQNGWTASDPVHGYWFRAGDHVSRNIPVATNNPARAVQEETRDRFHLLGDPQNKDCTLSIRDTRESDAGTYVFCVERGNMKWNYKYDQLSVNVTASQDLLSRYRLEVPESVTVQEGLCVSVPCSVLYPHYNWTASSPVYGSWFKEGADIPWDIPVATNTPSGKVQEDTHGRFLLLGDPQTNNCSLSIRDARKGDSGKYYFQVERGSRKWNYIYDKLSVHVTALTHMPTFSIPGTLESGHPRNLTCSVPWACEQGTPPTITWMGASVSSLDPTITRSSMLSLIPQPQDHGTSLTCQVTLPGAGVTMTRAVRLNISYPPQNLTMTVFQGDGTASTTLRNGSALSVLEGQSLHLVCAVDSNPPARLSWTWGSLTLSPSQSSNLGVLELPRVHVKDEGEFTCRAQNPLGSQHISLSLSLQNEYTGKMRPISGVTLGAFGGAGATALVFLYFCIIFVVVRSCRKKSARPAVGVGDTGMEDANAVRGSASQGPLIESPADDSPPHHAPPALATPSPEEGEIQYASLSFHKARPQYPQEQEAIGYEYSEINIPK
Experiment: flow cytometry, CHO transfectants

binding result	Binder
no binding	B1
no binding	B2
no binding	B3
no binding	B4
no binding	B5
no binding	B6
no binding	B7

Target: T8, Human Siglec-9 mutant M3 (human, UniProt Q9Y336 18-463)
T8 construct: Expressed on HEK293T cells; also called Mutant 3
T8 sequence (Q9Y336 other isoform, or with tags, fused parts or gaps mutant): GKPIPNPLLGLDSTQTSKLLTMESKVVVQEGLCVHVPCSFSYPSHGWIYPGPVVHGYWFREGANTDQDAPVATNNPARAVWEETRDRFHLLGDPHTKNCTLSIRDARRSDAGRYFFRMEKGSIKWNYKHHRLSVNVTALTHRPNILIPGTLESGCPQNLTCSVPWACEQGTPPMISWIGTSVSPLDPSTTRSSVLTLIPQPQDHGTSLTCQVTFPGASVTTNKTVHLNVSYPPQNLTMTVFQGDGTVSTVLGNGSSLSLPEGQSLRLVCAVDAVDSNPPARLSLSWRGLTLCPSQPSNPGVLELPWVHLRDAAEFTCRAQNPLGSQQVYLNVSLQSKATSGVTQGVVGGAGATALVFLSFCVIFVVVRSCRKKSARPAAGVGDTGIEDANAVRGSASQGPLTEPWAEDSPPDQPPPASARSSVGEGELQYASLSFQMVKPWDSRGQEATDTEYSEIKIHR
Experiment: flow cytometry, HEK293T transfectants

binding result	Binder
binds	B1
binds	B2
binds	B6
binds	B7

Target: T9, Human Siglec-9 mutant M6 (human, UniProt Q9Y336 18-463)
T9 construct: Expressed on HEK293T cells; also called Mutant 6
T9 sequence (Q9Y336 other isoform, or with tags, fused parts or gaps mutant): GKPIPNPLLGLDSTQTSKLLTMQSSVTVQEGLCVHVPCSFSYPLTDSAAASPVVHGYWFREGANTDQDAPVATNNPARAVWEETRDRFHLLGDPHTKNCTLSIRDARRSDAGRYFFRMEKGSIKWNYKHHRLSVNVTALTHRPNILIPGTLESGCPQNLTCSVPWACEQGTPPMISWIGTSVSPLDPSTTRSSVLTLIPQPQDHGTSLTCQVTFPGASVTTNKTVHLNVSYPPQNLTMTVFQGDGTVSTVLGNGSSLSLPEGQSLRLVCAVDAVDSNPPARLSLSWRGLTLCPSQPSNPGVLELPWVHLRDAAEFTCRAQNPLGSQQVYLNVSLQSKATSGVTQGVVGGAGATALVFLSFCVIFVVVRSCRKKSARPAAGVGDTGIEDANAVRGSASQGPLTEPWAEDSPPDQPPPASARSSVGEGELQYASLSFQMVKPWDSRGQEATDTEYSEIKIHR
Experiment: flow cytometry, HEK293T transfectants

binding result	Binder
binds	B1
binds	B2
binds	B6
binds	B7

Target: T10, Human Siglec-9 mutant M7 (human, UniProt Q9Y336 18-463)
T10 construct: Expressed on HEK293T cells; also called Mutant 7
T10 sequence (Q9Y336 other isoform, or with tags, fused parts or gaps mutant): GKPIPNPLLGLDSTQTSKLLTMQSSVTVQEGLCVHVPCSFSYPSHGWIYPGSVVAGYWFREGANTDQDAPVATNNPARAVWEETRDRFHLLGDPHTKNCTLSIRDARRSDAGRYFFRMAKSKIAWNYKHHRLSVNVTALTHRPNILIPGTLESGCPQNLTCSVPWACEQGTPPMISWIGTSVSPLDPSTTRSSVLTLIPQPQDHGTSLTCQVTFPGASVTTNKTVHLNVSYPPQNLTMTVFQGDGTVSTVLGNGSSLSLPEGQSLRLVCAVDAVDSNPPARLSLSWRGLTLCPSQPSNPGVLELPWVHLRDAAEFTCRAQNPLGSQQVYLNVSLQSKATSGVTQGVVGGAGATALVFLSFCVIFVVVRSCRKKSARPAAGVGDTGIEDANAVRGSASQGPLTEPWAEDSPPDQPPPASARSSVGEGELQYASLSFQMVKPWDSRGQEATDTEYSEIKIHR
Experiment: flow cytometry, HEK293T transfectants

binding result	Binder
binds	B1
binds	B2
binds	B6
binds	B7

Target: T11, Human Siglec-9 mutant M8 (human, UniProt Q9Y336 18-463)
T11 construct: Expressed on HEK293T cells; also called Mutant 8
T11 sequence (Q9Y336 other isoform, or with tags, fused parts or gaps mutant): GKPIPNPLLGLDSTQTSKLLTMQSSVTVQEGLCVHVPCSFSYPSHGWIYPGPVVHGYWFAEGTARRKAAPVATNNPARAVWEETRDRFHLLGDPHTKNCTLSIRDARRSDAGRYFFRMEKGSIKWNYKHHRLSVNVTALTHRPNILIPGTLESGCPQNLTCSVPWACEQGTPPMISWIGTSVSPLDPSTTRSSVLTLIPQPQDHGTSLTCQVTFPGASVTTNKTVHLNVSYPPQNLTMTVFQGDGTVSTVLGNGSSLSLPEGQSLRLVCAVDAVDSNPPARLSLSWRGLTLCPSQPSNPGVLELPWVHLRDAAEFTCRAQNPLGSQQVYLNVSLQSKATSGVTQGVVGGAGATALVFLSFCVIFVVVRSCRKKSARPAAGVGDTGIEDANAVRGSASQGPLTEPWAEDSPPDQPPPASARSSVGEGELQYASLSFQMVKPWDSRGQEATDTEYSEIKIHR
Experiment: flow cytometry, HEK293T transfectants

binding result	Binder
binds	B1
binds	B6

Target: T12, Human Siglec-9 mutant M14 (human, UniProt Q9Y336 18-463)
T12 construct: Expressed on HEK293T cells; also called Mutant 14
T12 sequence (Q9Y336 other isoform, or with tags, fused parts or gaps mutant): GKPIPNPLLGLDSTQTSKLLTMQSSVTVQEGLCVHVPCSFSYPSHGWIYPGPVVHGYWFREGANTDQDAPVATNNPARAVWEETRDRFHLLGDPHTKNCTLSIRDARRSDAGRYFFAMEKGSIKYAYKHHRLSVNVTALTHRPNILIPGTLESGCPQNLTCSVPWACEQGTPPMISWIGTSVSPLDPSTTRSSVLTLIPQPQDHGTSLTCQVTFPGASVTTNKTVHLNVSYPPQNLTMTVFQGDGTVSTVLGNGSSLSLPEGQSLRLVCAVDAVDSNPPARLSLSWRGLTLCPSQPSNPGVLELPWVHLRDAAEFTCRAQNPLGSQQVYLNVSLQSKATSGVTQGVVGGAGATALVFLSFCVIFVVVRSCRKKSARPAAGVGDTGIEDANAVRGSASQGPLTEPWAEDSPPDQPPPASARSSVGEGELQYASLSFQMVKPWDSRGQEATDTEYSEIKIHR
Experiment: flow cytometry, HEK293T transfectants

binding result	Binder
binds	B2
binds	B7

Target: T13, Human Siglec-9 mutant M15 (human, UniProt Q9Y336 18-463)
T13 construct: Expressed on HEK293T cells; also called Mutant 15
T13 sequence (Q9Y336 other isoform, or with tags, fused parts or gaps mutant): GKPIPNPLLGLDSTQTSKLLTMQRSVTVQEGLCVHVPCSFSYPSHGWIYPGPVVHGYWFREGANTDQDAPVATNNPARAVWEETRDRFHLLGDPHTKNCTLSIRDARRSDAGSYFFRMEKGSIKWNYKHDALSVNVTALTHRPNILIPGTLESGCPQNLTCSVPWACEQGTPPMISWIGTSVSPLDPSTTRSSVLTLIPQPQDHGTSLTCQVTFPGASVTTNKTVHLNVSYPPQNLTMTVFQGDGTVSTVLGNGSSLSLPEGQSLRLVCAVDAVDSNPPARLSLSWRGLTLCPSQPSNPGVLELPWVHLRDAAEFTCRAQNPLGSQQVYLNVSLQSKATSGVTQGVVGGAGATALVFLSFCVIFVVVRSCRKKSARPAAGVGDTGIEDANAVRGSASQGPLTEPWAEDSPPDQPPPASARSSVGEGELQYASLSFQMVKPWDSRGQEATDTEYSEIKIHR
Experiment: flow cytometry, HEK293T transfectants

binding result	Binder
binds	B1
binds	B2
binds	B6
binds	B7
